{"source": "patent US20200140551A1", "about": "(GlaxoSmithKline, published 2020)", "binders": {"B1": {"name": "H2L5 hIgG4PE (antibody)", "heavy": "not shown", "light": "EIVLTQSPATLSLSPGERATLSCSASSSVSYMHWYQQKPGQAPRLLIYDTSKLASGIPARFSGSGSGTDYTLTISSLEPEDFAVYYCFQGSGYPYTFGQGTKLEIKRTVAAPSVFIFPPSDEQLKSGTASVVCLLNNFYPREAKVQWKVDNALQSGNSQESVTEQDSKDSTYSLSSTLTLSKADYEKHKVYACEVTHQGLSSPVTKSFNRGEC", "notes": "also called 422 H2L5 hIgG4PE; H2L5 IgG4PE; copies: 2 + 2"}}, "key": {"[1]": {"target": "T1, human ICOS on human T cells (human, UniProt Q9Y6W8 21-167)", "T1 construct": "endogenous receptor on primary cells; also called ICOS on CD4+ and CD8+ T cells of healthy human donors", "T1 sequence": "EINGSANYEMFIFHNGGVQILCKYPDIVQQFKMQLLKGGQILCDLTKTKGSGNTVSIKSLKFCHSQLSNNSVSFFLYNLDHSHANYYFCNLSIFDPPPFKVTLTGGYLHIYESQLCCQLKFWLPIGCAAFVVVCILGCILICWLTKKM", "assay": "flow cytometry, activated human CD4 T cells, FITC MFI, donor 1124F36", "experimental": "(§1) Binding of H2L5 hIgG4PE was assessed in both naive and activated CD3+ T cells.\n(§2) Either naive and/or activated CD3+ T cells were re-suspended in PBS with 0.1% BSA (FACS Buffer) containing Human FcR Blocking Solution at 2×10⁶ cells/mL (5 μl FcR Blocking Solution+[…] FACS Buffer per 1 mL). At a concentration of 2×10⁵ cells/well, 100 μl cells were placed into 2 mL 96 well Assay Blocks and incubated at room temperature for 15 minutes. During the incubation, a titration of the binding antibodies, anti-ICOS (H2L5 hIgG4PE) or IgG4 Isotype Control antibody was prepared as a 2× concentration. […] Following the binding incubation, cells were washed twice in 1 mL of FACS buffer, centrifuging at 400×g for 5 minutes at room temperature.\n(§3) Data acquisition and compensation were performed on BD FACS instruments, LSR Fortessa X-20 or FACS Canto II using BD Diva (ver. 8.0) software. Data analysis employed Flow Jo software (ver.10.0.8r1). Results are reported as both MFI (Median Fluorescence Intensity) and Percent of cells positive for human IgG kappa light chain FITC staining out of the total live cells or appropriate parent population. EC50s were determined using Graphpad Prism 5 software (ver. 5.04) with non-linear regression of transformed data (X=(log(X)) using a variable slope with 4 parameters (log(Agonist) vs. response—Variable slope)."}, "[2]": {"target": "T1, human ICOS on human T cells", "assay": "flow cytometry, activated human CD4 T cells, FITC MFI, donor 1141F45", "experimental": "as §1, §2, §3"}, "[3]": {"target": "T1, human ICOS on human T cells", "assay": "flow cytometry, activated human CD4 T cells, FITC MFI, donor 1149M52", "experimental": "as §1, §2, §3"}, "[4]": {"target": "T1, human ICOS on human T cells", "assay": "flow cytometry, activated human CD4 T cells, FITC MFI, mean of donors", "experimental": "as §2, §3"}, "[5]": {"target": "T1, human ICOS on human T cells", "assay": "flow cytometry, activated human CD4 T cells, percent FITC positive, donor 1124F36", "experimental": "as §1, §2, §3"}, "[6]": {"target": "T1, human ICOS on human T cells", "assay": "flow cytometry, activated human CD4 T cells, percent FITC positive, donor 1173F42", "experimental": "as §1, §2, §3"}, "[7]": {"target": "T1, human ICOS on human T cells", "assay": "flow cytometry, activated human CD4 T cells, percent FITC positive, donor 2100M39", "experimental": "as §2, §3"}, "[8]": {"target": "T1, human ICOS on human T cells", "assay": "flow cytometry, activated human CD8 T cells, percent FITC positive, donor 1124F36", "experimental": "as §1, §2, §3"}, "[9]": {"target": "T1, human ICOS on human T cells", "assay": "flow cytometry, activated human CD8 T cells, percent FITC positive, donor 1149M52", "experimental": "as §1, §2, §3"}, "[10]": {"target": "T1, human ICOS on human T cells", "assay": "flow cytometry, activated human CD8 T cells, percent FITC positive, donor 1173F42", "experimental": "as §2, §3"}, "[11]": {"target": "T1, human ICOS on human T cells", "assay": "flow cytometry, activated human CD8 T cells, percent FITC positive, donor 2100M39", "experimental": "as §2, §3"}, "[12]": {"target": "T1, human ICOS on human T cells", "assay": "flow cytometry, activated human CD8 T cells, percent FITC positive, median of donors", "experimental": "as §1, §2, §3"}}}
{"binder": "B1", "values": [{"measurement": "EC50", "setting": "[1]", "value": 0.628, "unit": "µg/mL"}, {"measurement": "EC50", "setting": "[2]", "value": 1.27, "unit": "µg/mL"}, {"measurement": "EC50", "setting": "[3]", "value": 1.31, "unit": "µg/mL"}, {"measurement": "EC50", "setting": "[4]", "value": 0.977, "unit": "µg/mL"}, {"measurement": "EC50", "setting": "[5]", "value": 0.45, "unit": "µg/mL"}, {"measurement": "EC50", "setting": "[6]", "value": 0.612, "unit": "µg/mL"}, {"measurement": "EC50", "setting": "[7]", "value": 0.814, "unit": "µg/mL"}, {"measurement": "EC50", "setting": "[8]", "value": 0.619, "unit": "µg/mL"}, {"measurement": "EC50", "setting": "[9]", "value": 0.547, "unit": "µg/mL"}, {"measurement": "EC50", "setting": "[10]", "value": 0.371, "unit": "µg/mL"}, {"measurement": "EC50", "setting": "[11]", "value": 1.23, "unit": "µg/mL"}, {"measurement": "EC50", "setting": "[12]", "value": 0.583, "unit": "µg/mL"}]}
